Test results: the supplement of paper PMC9732359
± gives the uncertainty stated by the source.

Test: protein stability index of a GFP-peptide fusion (yeast GPS) (PSI 1-4); higher = more stable; sorted into four equal gates, so the index is relative within each strain
Conditions: doa10∆
Summary of the method: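 Peptides tiling yeast proteins in 17-residue segments were fused downstream of GFP, with Cherry expressed from the same plasmid. As a pooled library in yeast, mid-log cultures grown in leucine-free medium were sorted into four equal gates by GFP/Cherry fluorescence ratio. Gate plasmids were PCR-amplified and Illumina-sequenced, and barcodes linked reads to strains. Each peptide received a protein stability index equal to the sum of each gate's read frequency times its gate number.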

Sequence	protein stability index
ILDCVVTNSMRQTLAPY [YJR042W/NUP85]	2.29 ± 0.064
ILEFITAAQVANVELTP [RPC34]	2.68 ± 0.12

Same assay, conditions: pdr5∆

Sequence	protein stability index
HVRKVKLLKQPKFDVGA [RPS1A]	2.5 ± 0.085
HVSHEAMREVNDEKRVK [YIL149C/MLP2]	2.89 ± 0.15
HWSVSFQAHEITSFLLS [NAS6]	1.92 ± 0.051
HYKQQIAVLIELLEERF [YCS4]	2.12 ± 0.065
HYKVPTDTSTTATAATN [MED6]	2.62 ± 0.053
IADLASLEQLLGMMYEQ [YCS4]	2.6 ± 0.067
IAEIKKTPLLKQYLSAS [RPL6A]	2.47 ± 0.065
IAFLVGLVNPKTVQSMT [SWI3]	2.02 ± 0.059
IANDNVITPHFITNVQS [SWI1]	2.68 ± 0.076
IANFSRAGKYELVKSYS [YJR042W/NUP85]	2.09 ± 0.074
IASKMSLAPEADLDSLI [RPT3]	2.81 ± 0.13
ICSCVNRGVKLEIVYGY [RPP1]	2.63 ± 0.063
IDALGTEFSKNDLEVGV [SCL1]	2.46 ± 0.11
IDDFTTRLWGSVYYHKG [SNU114]	3.41 ± 0.17
IDDKGVLMERKDERGEG [ITC1]	3.5 ± 0.18
IDDLIHEIITVGPHFKQ [RPL7A]	2.32 ± 0.11
IDEVDSIATKRFDAQTG [RPT3]	3.18 ± 0.076
IDGPKAGVPRQAINLGQ [RPL14A]	3.29 ± 0.11
IDGSTSHEERIEAIDEY [ISW2]	3.26 ± 0.11
IDMESDVEDDDKETQLK [POP7]	1.92 ± 0.048
IDNGTGRTGNGNMGITT [MED6]	2.98 ± 0.061
IDNLESYAGISTDKLVQ [SIR2]	2.93 ± 0.09
IDSPELLSLISTTAALQ [RPN7]	2.65 ± 0.041
IDTDLFGAPNNPNSTAI [YGL172W/NUP49]	2.78 ± 0.063
IDTLLYLMTYPQQPMVK [RET1]	2.09 ± 0.12

Sequence	protein stability index
IDVLLEQTTGGNNKDLK [RPB4]	3.68 ± 0.27
IDYHKTAKETKMLMNLH [RPN11]	2.45 ± 0.06
IEATDLGNIASSFYINH [BRR2]	3.04 ± 0.1
IEDLWQFLYEKHYKNIP [RPC82]	1.53 ± 0.078
IEIDYTVRVDKASTYGE [SNF12]	1.41 ± 0.067
IELDQVLNMLYWVPDWD [RPO21]	2.32 ± 0.068
IELLSLDDDSIVNHEQD [SRB4]	3.19 ± 0.089
IELVVTEKEEAVAKAAE [RPL17A]	3.33 ± 0.05
IEQGIPKHSYLSGNPLT [SIR4]	2.88 ± 0.076
IFEAISLSDELNLDEIV [YJL039C/NUP192]	2.73 ± 0.064
IFEKELMYQIKKECALL [SRB4]	3.2 ± 0.21
IFISSDHEFVLISLIMT [YMR129W/POM152]	1.24 ± 0.071
IFKDKEKLVSDLRLIKV [SMC1]	3.23 ± 0.089
IFNDILAHVDQIVDIRN [YJL039C/NUP192]	2.64 ± 0.18
IFNFDQLVEITEQIKMR [SRB8]	1.6 ± 0.082
IFSLLTGYPDEPPAGVA [CYT1]	2.52 ± 0.14
IGIDPPRGVLLYGPPGT [RPT3]	2.58 ± 0.1
IGQLMAFDKHMNLVLNE [SMB1]	2.39 ± 0.2
IGSGAMSPLECRNILGV [RPP1]	2.43 ± 0.046
IGTGEHIHDLEKFSPKS [SRP54]	2.43 ± 0.053
IGTHHAGLTRSDRSLSE [BRR2]	2.05 ± 0.2
IGVRCYEAYPNTSLPPS [FAS1]	2.33 ± 0.032
IHIDALELAGMDALYEK [SIR3]	3.04 ± 0.098
IHKQIVIEMKRCFENLQ [UBP6]	2.13 ± 0.093
IHPIPSVTVSQGNYVTE [YMR129W/POM152]	2.6 ± 0.066

Sequence	protein stability index
IHQILLPTNPTLDKPNA [CSE2]	2.58 ± 0.041
IIDGPKALILAPTRELV [PRP28]	2.32 ± 0.053
IIDVGTHHTDIIPIVDY [ARP9]	2.48 ± 0.056
IIHVLTTMFENTGWSCS [RGR1]	2.33 ± 0.077
IIKANQLILSDVDPEFY [RET1]	1.76 ± 0.081
IIKERALLSKVKWVHMI [SNF2]	1.23 ± 0.061
IILHFANFGEILEDFRV [YMR153W/NUP53]	2.65 ± 0.084
IIPIVDYAQLDHLVSSI [ARP9]	2.48 ± 0.051
IIQGRKNFDMLNSMEKD [PCI8]	2.77 ± 0.074
IIQNAQRDAVTLFCCLL [RPO21]	2.54 ± 0.055
IIRLLPINLENNDGSYG [SRB8]	1.24 ± 0.048
IIVAGYDDKNKGEVYTI [PRE3]	3.12 ± 0.096
IIVQYLTKFRQKLMQLV [RGR1]	2.88 ± 0.16
IKEDIKKQPSILVGGTL [SNF2]	2.15 ± 0.12
IKEELTKLIISGQLNFE [PCI8]	3.19 ± 0.15
IKFGGLIIQKIPSLQNN [ECM29]	1.72 ± 0.066
IKFKKCDGDTVWDKFAV [SSN2]	3.03 ± 0.048
IKLNGSTLLCTDLESKS [SNU114]	2.73 ± 0.058
IKMQRQFSQLNDPNAAV [MED6]	3.04 ± 0.059
IKNVIVSNRVAAPARAG [RPP0]	2.44 ± 0.11
IKQDIPIVIIFRALGII [RPB2]	1.33 ± 0.037
IKQTSDESTIKRIKPNT [ECM29]	3 ± 0.068
IKTFFTQKDSARVSPRN [YAR002W/NUP60]	3.49 ± 0.1
IKTKQMSLKKCQEEVST [SMC2]	3.02 ± 0.095
ILATNSLRILAKLSERS [YJL039C/NUP192]	2.67 ± 0.062
